{
  "source": "the supplement of paper PMC9170038",
  "system": "MS2 coat protein",
  "assay": "apparent KD of MS2 coat protein; designed switch direction (-1 OFF switch, 1 ON switch): -1; higher = weaker reporter binding",
  "summary_of_the_method": "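On Illumina chips, designed RNA switches with common flanks were made by stalled E. coli RNA polymerase. Titrations with SNAP-549-labelled MS2 coat protein, doubling from 0.7 or 1.5 nM to 3 µM, were done with no input, with 200 uM small-molecule ligand, or with an oligonucleotide input. Apparent KD is the median per design over clusters, from curve fits of normalised cluster fluorescence.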",
  "key": {"[1]": {"settings": "Eterna round: R95, input ligand: microRNA oligo, concentration not stated"}, "[2]": {"settings": "input ligand: microRNA oligo, concentration not stated"}},
  "data": [
    {"sequence": "UAAAAUAGUGUGAGGAUAUGCUGGUCCUUGGAUCAGCAGAAGGCACAUGAGGAUCACCCAUGUAGUUAAUUAUA [Mat - Exclusion 4 - JL Mod - D24] (puzzle: Brourd's mod of Exclusion 4)", "values": [
      {"measurement": "apparent KD of MS2 coat protein", "setting": "[1]", "value": 36.8, "unit": "nM"}
    ]},
    {"sequence": "CUGAAAGACGAAGGAUAUCCAGGCACCGGAGUAGGAGAAGGUCGUCCGGGUGUCCUAGAACUUGAGGAUCACCCAAGUAGAAGA [Mutated MS2 EX1.5] (Eterna round: R96, puzzle: Exclusion NG 1)", "values": [
      {"measurement": "apparent KD of MS2 coat protein", "setting": "input ligand: FMN 200 uM", "value": 34.4, "unit": "nM"},
      {"measurement": "apparent KD of MS2 coat protein", "setting": "[2]", "value": 36.9, "unit": "nM"},
      {"measurement": "apparent KD of MS2 coat protein", "setting": "input ligand: none", "value": 24.7, "unit": "nM"}
    ]},
    {"sequence": "AUUUUGAAUGUAAGGAUAUCAAUACGAGGGCGUGAUGAGAAGGUACAUGAGGAUCACCCAUGUGGCGAGCUCAC [BmEX4 B.24] (Eterna round: R97, puzzle: Brourd's mod of Exclusion 4)", "values": [
      {"measurement": "apparent KD of MS2 coat protein", "setting": "input ligand: FMN 200 uM", "value": 33.5, "unit": "nM"},
      {"measurement": "apparent KD of MS2 coat protein", "setting": "input ligand: none", "value": 23.7, "unit": "nM"}
    ]},
    {"sequence": "AGGUGUAGAGGAUAUACUGCAAAGCACAUGAGGAUCACCCAUGUCCCUCUAUGGGAUUAUGUAGAAGGCUACACCA [Omei Ex5 C6] (Eterna round: R97, puzzle: Exclusion 5)", "values": [
      {"measurement": "apparent KD of MS2 coat protein", "setting": "input ligand: FMN 200 uM", "value": 17.5, "unit": "nM"},
      {"measurement": "apparent KD of MS2 coat protein", "setting": "input ligand: none", "value": 20.2, "unit": "nM"}
    ]},
    {"sequence": "AACCUGAGGCAAAGCUUUAGGUGUACAUGAGGAUCACCCAUGUAGGAUAUGGUAGGCUUUGCUUACCAGAAGGACAUAAUGAUG [Mat - Exclusion NG 3 - Mod of JL - D46] (Eterna round: R96, puzzle: Exclusion NG 3)", "values": [
      {"measurement": "apparent KD of MS2 coat protein", "setting": "input ligand: FMN 200 uM", "value": 92.2, "unit": "nM"},
      {"measurement": "apparent KD of MS2 coat protein", "setting": "[2]", "value": 42, "unit": "nM"},
      {"measurement": "apparent KD of MS2 coat protein", "setting": "input ligand: none", "value": 53.3, "unit": "nM"}
    ]},
    {"sequence": "UUUUAACAAGCGAGAUCCUACAUGAGGAUCACCCAUGUAGACCAUGGUUUCCAUGGUCUUUUUGCUCGUCUUGUGUG [jl TITIN mod 6] (Eterna round: R97, puzzle: Sensor, turn-off variant 1)", "values": [
      {"measurement": "apparent KD of MS2 coat protein", "setting": "input ligand: FMN 200 uM", "value": 22.5, "unit": "nM"},
      {"measurement": "apparent KD of MS2 coat protein", "setting": "input ligand: none", "value": 23.3, "unit": "nM"}
    ]},
    {"sequence": "UUAUACGUUGAGGAUAUGCGACUUUGUAUAGUUGUAGAAGGCGAUACAUGAGGAUCACCCAUGUUUAUGGGCAU [LRO-Ex6-10] (puzzle: Exclusion 6)", "values": [
      {"measurement": "apparent KD of MS2 coat protein", "setting": "[1]", "value": 186, "unit": "nM"}
    ]},
    {"sequence": "CAUCCACAUGAGGAUCACCCAUGUCAGGAUAUUGUACAAACCCAAUCAUAUUGGGCGUCAAGAAGGGACAUUCU [EX1 B.5] (Eterna round: R97, puzzle: Exclusion 1)", "values": [
      {"measurement": "apparent KD of MS2 coat protein", "setting": "input ligand: FMN 200 uM", "value": 22.8, "unit": "nM"},
      {"measurement": "apparent KD of MS2 coat protein", "setting": "input ligand: none", "value": 12.4, "unit": "nM"}
    ]},
    {"sequence": "AGGUGUAGAGGAUAUUUAUUCUUCCACAUGAGGAUCACCCAUGUCCUGGUCACCAAGGACGGAGAAGGCUACACCA [Omei Ex5 D24] (Eterna round: R97, puzzle: Exclusion 5)", "values": [
      {"measurement": "apparent KD of MS2 coat protein", "setting": "input ligand: FMN 200 uM", "value": 57.4, "unit": "nM"},
      {"measurement": "apparent KD of MS2 coat protein", "setting": "input ligand: none", "value": 63.5, "unit": "nM"}
    ]},
    {"sequence": "AAUAAGUGAGGAUAUGGAAUAAUAAAUAAAAUAAUAAAUAACCAGAAGGCACAUGAGGAUCACCCAUGUAAUAA [JMF's solution 3] (puzzle: Exclusion 4)", "values": [
      {"measurement": "apparent KD of MS2 coat protein", "setting": "Eterna round: R95, input ligand: FMN 200 uM", "value": 27.4, "unit": "nM"},
      {"measurement": "apparent KD of MS2 coat protein", "setting": "[1]", "value": 23.7, "unit": "nM"},
      {"measurement": "apparent KD of MS2 coat protein", "setting": "Eterna round: R95, input ligand: none", "value": 21.4, "unit": "nM"}
    ]},
    {"sequence": "CCUCAACAGUAGGAUAUCAUCAAACUAUUGUGAUGAGAAGGACUGACAUGAGGAUCACCCAUGUUGACGUGAUA [Exclusion 6 - 6:b] (puzzle: Exclusion 6)", "values": [
      {"measurement": "apparent KD of MS2 coat protein", "setting": "[1]", "value": 47.8, "unit": "nM"}
    ]},
    {"sequence": "AUAUCGUGAGGAUAUCCAAUAUAUGACAUGAGGAUCACCCAUGUUUCCACUCGUACCUCCGGAGAAGGCACAGUUA [Ex5 #72] (Eterna round: R97, puzzle: Exclusion 5)", "values": [
      {"measurement": "apparent KD of MS2 coat protein", "setting": "input ligand: FMN 200 uM", "value": 23.9, "unit": "nM"},
      {"measurement": "apparent KD of MS2 coat protein", "setting": "input ligand: none", "value": 24.5, "unit": "nM"}
    ]},
    {"sequence": "AUUCUUCAUAUCACAUGAGGAUCACCCAUGUUAUUCAUCGCGUAGGAUAUCGAGAAUUUUAAAUACGAGAAGGACGAAUUGAUA [JR_ExcNG3_Sub071] (Eterna round: R96, puzzle: Exclusion NG 3)", "values": [
      {"measurement": "apparent KD of MS2 coat protein", "setting": "input ligand: FMN 200 uM", "value": 35.1, "unit": "nM"},
      {"measurement": "apparent KD of MS2 coat protein", "setting": "[2]", "value": 31.8, "unit": "nM"},
      {"measurement": "apparent KD of MS2 coat protein", "setting": "input ligand: none", "value": 35.3, "unit": "nM"}
    ]}
  ]
}
